Data taken from PMC12775002, “Human O-GlcNAcase catalytic-stalk dimer anchors flexible histone binding domains” (Communications Chemistry, 2025).

B1: human O-GlcNAcase, long isoform (OGA-L), full length (enzyme, UniProt O60502 1-916, looked up)
chain: MVQKESQATLEERESELSSNPAASAGASLEPPAAPAPGEDNPAGAGGAAVAGAAGGARRFLCGVVEGFYGRPWVMEQRKELFRRLQKWELNTYLYAPKDDYKHRMFWREMYSVEEAEQLMTLISAAREYEIEFIYAISPGLDITFSNPKEVSTLKRKLDQVSQFGCRSFALLFDDIDHNMCAADKEVFSSFAHAQVSITNEIYQYLGEPETFLFCPTEYCGTFCYPNVSQSPYLRTVGEKLLPGIEVLWTGPKVVSKEIPVESIEEVSKIIKRAPVIWDNIHANDYDQKRLFLGPYKGRSTELIPRLKGVLTNPNCEFEANYVAIHTLATWYKSNMNGVRKDVVMTDSEDSTVSIQIKLENEGSDEDIETDVLYSPQMALKLALTEWLQEFGVPHQYSSRQVAHSGAKASVVDGTPLVAAPSLNATTVVTTVYQEPIMSQGAALSGEPTTLTKEEEKKQPDEEPMDMVVEKQEETDHKNDNQILSEIVEAKMAEELKPMDTDKESIAESKSPEMSMQEDCISDIAPMQTDEQTNKEQFVPGPNEKPLYTAEPVTLEDLQLLADLFYLPYEHGPKGAQMLREFQWLRANSSVVSVNCKGKDSEKIEEWRSRAAKFEEMCGLVMGMFTRLSNCANRTILYDMYSYVWDIKSIMSMVKSFVQWLGCRSHSSAQFLIGDQEPWAFRGGLAGEFQRLLPIDGANDLFFQPPPLTPTSKVYTIRPYFPKDEASVYKICREMYDDGVGLPFQSQPDLIGDKLVGGLLSLSLDYCFVLEDEDGICGYALGTVDVTPFIKKCKISWIPFMQEKYTKPNGDKELSEAEKIMLSFHEEQEVLPETFLANFPSLIKMDIHKKVTDPSVAKSMMACLLSSLKANGSRGAFCEVRPDDKRILEFYSKLGCFEIAKMEGFPKDVVILGRSL
notes: human O-GlcNAcase (OGA), long isoform OGA-L, 103 kDa, full length, codon optimized; also called hOGA; full-length recombinant OGA; source: E. coli TOP10 (pBAD), purified (Talon resin for the arrays; HisTrap and size-exclusion chromatography for cryo-EM); not shown: His6, N-terminal, kept
B2: histone H4 1-19 peptide, K8,12,16Ac (peptide, UniProt P62805 2-20, looked up)
peptide: SGRGKGGKGLGKGGAKRHR
modifications: acetyl-lysine at K8, K12 and K16
notes: histone H4 tail peptide, residues 1-19, on the array; also called H4 1-19 K^8,12,16Ac; H4K^8,12,16Ac; source: bought: Active Motif MODified Histone Peptide Array (peptide on the array)
B3: histone H4 1-19 peptide, K5,8,12,16Ac (peptide, UniProt P62805 2-20, looked up)
peptide: SGRGKGGKGLGKGGAKRHR
modifications: acetyl-lysine at K5, K8, K12 and K16
notes: histone H4 tail peptide, residues 1-19, on the array; also called H4 1-19 K^5,8,12,16Ac; H4K^5,8,12,16Ac; source: bought: Active Motif MODified Histone Peptide Array (peptide on the array)

How the values were obtained:
[1] = target: recombinant mononucleosome with the H4K5,8,12,16Ac modification (UniProt P62805); assay: pull-down; 500 nM biotinylated mononucleosomes with 0, 25, 50, 100, 250 and 500 nM full-length OGA in OGA assay buffer, overnight 4 °C; captured on streptavidin magnetic beads; bound OGA-L quantified by immunoblot (anti-MGEA5); saturation plot and Scatchard analysis
[2] = target: recombinant mononucleosome with the H3K36Me3 modification; assay: as above
[3] = target: the molecule itself; assay: cryo-EM structure; apo full-length OGA-L, about 0.5 ug/ul in 20 mM Tris, 150 mM NaCl; Titan Krios 300 kV
[4] = target: B1; assay: peptide or protein array; Active Motif MODified histone peptide array (384 modified histone peptides in duplicate, immobilised); 100 nM protein in 20 mM Tris pH 7.5, 1 mM DTT, 0.5 mg/mL BSA, RT 1 h; detected with anti-His6 antibody; 3 or more arrays; settings: both partners purified

Binder | Kd [1] | Kd [2] | binding result [3] | binding result [4]
B1 | 220 nM | 290 nM | binds | –
B2 | – | – | – | binds
B3 | – | – | – | binds
